One experiment deals with T1, human CD300F-Fc (human).
T1 construct: hIgG1-Fc fusion; the entry is the whole fusion chain
T1 chain: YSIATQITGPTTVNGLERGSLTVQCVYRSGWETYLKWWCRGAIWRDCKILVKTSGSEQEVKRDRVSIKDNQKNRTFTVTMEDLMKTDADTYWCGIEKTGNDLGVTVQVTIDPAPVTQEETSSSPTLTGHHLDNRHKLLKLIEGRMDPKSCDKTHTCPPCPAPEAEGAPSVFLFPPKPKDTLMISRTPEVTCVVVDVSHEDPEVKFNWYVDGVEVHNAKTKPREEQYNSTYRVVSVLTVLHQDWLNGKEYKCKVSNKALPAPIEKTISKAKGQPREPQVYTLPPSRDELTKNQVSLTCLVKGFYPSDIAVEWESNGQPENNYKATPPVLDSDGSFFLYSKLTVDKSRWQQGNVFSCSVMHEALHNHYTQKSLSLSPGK
The experiment is described as follows: SPR (Carterra LSA), antibody immobilised. The source says:
In addition to the screening of antibodies for cross-reactivity by FACS analysis, surface plasmon resonance (SPR) analysis was used to determine the binding of antibodies to recombinant huCD300 and muCD300 family members (orthologs) conjugated to an Fc (human CD300A-Fc SEQ ID NO:144; human CD300LB-Fc SEQ ID NO:145; human CD300C-Fc SEQ ID NO: 146; human CD300D-Fc SEQ ID NO: 147; human CD300E-Fc SEQ ID NO: 148; human CD300F-Fc SEQ ID NO: 149; murine CD300A-Fc SEQ ID NO: 150; murine CD300LB-Fc SEQ ID NO:151; murine CD300C-Fc SEQ ID NO: 152; murine CD300D-Fc SEQ ID NO: 153, and murine CD300E-Fc SEQ ID NO: 154).
Binding of mouse anti-CD300LB IgG1 antibodies of the present disclosure to human and murine CD300 orthologs were evaluated by surface plasmon resonance (SPR) using a Carterra LSA instrument (Carterra, Salt Lake City, UT). […] A HC200M sensor chip (Carterra) was activated using the single channel flow cell with a 7-minute injection of a 1:1:1 mixture of 100 mM MES pH 5.5, 100 mM sulfo-NHS, 400 mM EDC (all reconstituted in MES pH 5.5; 100 μL of each mixed in vial immediately before running assay). After switching to the multi-channel array flow cell, the antibodies were injected over the activated chip in a 96-spot array for 10 minutes. The remaining unconjugated active groups on the chip were then blocked by injecting 1M Ethanolamine pH 8.5 (Carterra) for 7 minutes using the single channel flow cell. After priming with running buffer (HBS-TE, Carterra) with 0.5 mg/ml BSA (Sigma), the immobilized anti-CD300LB antibodies were tested for their ability to bind human and mouse recombinant CD300LB extracellular domains. Human CD300 family members and mouse CD300A were hIgG1-Fc fusions, while mouse CD300LB, mouse CD300C, mouse CD300D, and mouse CD300E were mouse IgG2a-Fc fusions (R&D Systems). Binding was assessed by injecting each analyte over the entire antibody array using the single channel flow cell. CD300 analytes were diluted to 300 nM or 600 nM in running buffer and injected in series without regeneration. Two or three buffer blanks were run between each mouse or human ortholog, respectively. Data were processed and analyzed using NextGenKIT high-throughput kinetics analysis software (Carterra).

Experiment [1] addresses T2, human CD300LB on primary human macrophages (human, UniProt A8K4G0 18-201).
T2 sequence: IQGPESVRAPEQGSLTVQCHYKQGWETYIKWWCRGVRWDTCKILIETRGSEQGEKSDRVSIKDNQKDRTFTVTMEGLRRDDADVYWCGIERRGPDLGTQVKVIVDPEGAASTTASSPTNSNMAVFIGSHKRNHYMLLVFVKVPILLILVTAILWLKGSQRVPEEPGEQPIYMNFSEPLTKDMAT
The experiment is described as follows: flow cytometry, primary human macrophages donor 1277, 10 ug/mL antibody, isotype control subtracted. As to the method:
Human monocytes from various donors were isolated from whole blood using RosetteSep Human Monocyte Enrichment Cocktail (Stemcell technologies) and Ficoll centrifugation per manufacturer protocols. After lysing red blood cells with ACK lysing buffer, monocytes were resuspended in complete media (RPMI, 10% FBS, Pen/Strep, L-glutamine, HEPES, non-essential amino acid, Sodium pyruvate). To obtain macrophages from these isolated monocytes, 100 ng/ml human M-CSF and 8% v/v human serum were added to the cells for 5-7 days. Cells were counted on the day of the experiment and plated at 100,000 cells per well in a round-bottom 96 well plate. Cells were incubated with TruStain Fc block and 10 μg/mL antibody for 1 hour on ice before washing with 250 μL ice cold PBS twice. Cells were then incubated with the appropriate APC-conjugated secondary antibodies for 20 minutes in the dark on ice. Finally, cells were washed twice with ice cold FACS buffer and then resuspended in 100 μL FACS buffer containing 1% propidium iodide. Samples were immediately analyzed using a BD FACSCanto flow cytometer. The gMFI was calculated using FlowJo software minus the gMFI of the appropriate isotype control.
Background: A flow cytometer gives signals particle by particle.

For experiment [2], the target named is T3, huCD300LB-DAP12 fusion constitutively expressed on 293 Freestyle (Freestyle HEK) cells (human).
T3 construct: also called Human CD300LB-DAP12 chimera
The experiment is described as follows: flow cytometry, geometric mean (APC-A), FreeStyle HEK cells expressing huCD300LB. The protocol:
Other members of the human CD300 family share sequence homology with human CD300LB. Thus, counter screens against binding of the anti-CD300LB antibodies to huCD300A, huCD300C, huCD300LD, huCD300E, huCD300LF, and huCD300G by stable overexpression in Freestyle HEK cells (generation of which is described above) were performed as follows. Cells were counted and labeled with 200 nM CFSE, 500 nM VioBlue, or a combination of the two to discriminate between CD300LB, Parental cells, and the other CD300 family members. Cells were washed thoroughly with PBS containing 2% fetal bovine serum then resuspended at a total of 240,000 cells per well. Hybridoma supernatants (100 L) or purified antibodies at various concentrations were added and incubated for one hour before the cells were washed twice again and stained with an APC-labeled anti-human or anti-mouse secondary antibody. Cells were then analyzed using a BD FACSCanto II. Anti-CD300LB antibodies were analyzed for specific binding to human CD300LB by FlowJo software by gating on live cells, then the APC geometric mean fluorescence intensity (gMFI) calculated for each labeled population. The results are shown in […]

Where a chain is given by its changes, count along the chain named.

B1: anti-CD300LB antibody CD-03 (antibody, V domains shown)
VH: EVQLQQSGPELVKPGASVKISCKASGYTFTDYYINWVRQSHGKSLECIGDINPNNGGTNYNQKFKGKATLTVDRSSNTAYMEFRSLTFDDSALYYCAAEGAYWGQGTLVTVSA
VL: not shown
In the case of B1, the binding result in the experiment with human CD300F-Fc was “no binding (tested: 300 nM or 600 nM)”.

B2: anti-CD300LB antibody CD-07 (antibody, V domains shown)
VH: QVQLVQSGAEVKKPGASVKVSCKASGYTFTNYRMHWVRQAPGQGLEWMGWINPNSGGTIYAQKFQGRVTMTRDTSTSTVYMELSSLRSEDTAVYYCARDLDYWGQGTLVTVSS
VL: DIQMTQSPSSLSASVGDRVTITCQASQDISNYLNWYQQKPGKAPKLLIYGASSLQSGVPSRFSGSGSGTDFTLTISSLQPEDFATYYCQQSYSTPWTFGPGTKVEIK
What is called EC50 (read off the curve) is the concentration giving half of the maximal effect. In turn, B2 returned a gMFI in experiment [1] of 3790 gMFI. For the same molecule, the “EC50 (read off the curve)” value in experiment [2] was about 0.02 µM.

B3: anti-CD300LB antibody CD-06 (antibody, V domains shown)
VH: QVQLVQSGAEVKKPGASVKVSCKASGYTFTTYAVHWVRQAPGQGLEWMGIVNPNSGGTNYAQKFQGRVTMTRDTSTSTVYMELSSLRSEDTAVYYCARDIVPMNNFYNYYYGMDVWGQGTTVTVSS
VL: B2 VL with Q24R, D28S, N31S, G50A, A51T, S53T, S93R, T94I, W96Y, P100Q
As for B3, the gMFI in experiment [1] came to 24000 gMFI.

B4: anti-CD300LB antibody CD-05 (antibody, V domains shown)
VH: QVQLVQSGAEVKKPGASVKVSCKASGYTFSRYYINWVRQAPGQGLEWMGWINPNSGGTNYAQKFQGRVTMTRDTSTSTVYMELSSLRSEDTAVYYCTTDQLRFGKTGPYYGMDVWGQGTTVTVSS
VL: B2 VL with Q24R, D28N, S30G, N31T, G50A, T94D, P95T, W96L, P100G
As for B4, the gMFI in experiment [1] is 68600 gMFI. In addition, in the experiment with human CD300F-Fc, the binding result is “no binding (tested: 300 nM or 600 nM)”.

B5: anti-CD300LB antibody CD-01 (antibody, V domains shown)
VH: RVQLQQSGAELVRPGASVTLSCKASGFTFTDFEMHWVKKTPVHGLEWIGAIDPESGNTAYNQKFRGKATLTADKSSSTAYMELRYLTSEDSAVYYCTPLISGADYWGQGTTLTVSS
VL: DVVMTQSPLSLPVSLGDQASISCRSSQSLVHSDGNTYLYWYLQKPGQSPKLLIYKVSNRFSGVPDRFSGSGSGTDFTFKISRVGAEDLGVYFCSQSTHVPWTFGGGTKLEII
As to B5, the binding result in experiment [2] is “no binding”; with human CD300F-Fc it was “no binding (tested: 300 nM or 600 nM)”.

B6: anti-CD300LB antibody CD-02 (antibody, V domains shown)
VH: QVQLQQPGAELVRPGSSVKLSCQASGYTFTNYWMHWVRQRPIQGLEWIGNIDPSDSETHYNQKFKDRATLTVDKSSSTAYMQLSSLTSEDSAVYYCARSGVYDDEGGDYWGQGTTLTVSS
VL: ENVLTQSPAIMSASPGEKVTMTCSASSSVSYIHWYQQKSSTSPKLWIYDTSKLASGVPGRFSGSGSGNSYSLTISSMETEDVATYYCFQGSGYPLTFGAGTKLELK
Take B6: the results for the binding result (in experiment [2]; with human CD300F-Fc) were “no binding” and “no binding (tested: 300 nM or 600 nM)”, respectively.

The values are drawn from US20240254227A1 (Alector, published 2024).
